Test [1] concerns the target T1, peptide on HLA-A*02:01 (human).
T1 peptide: VYALPLKML
Description: activation reporter or marker.

In test [2] the target is T2, peptide on HLA-A*24:02 (human).
T2 peptide: VYALPLKML
Description: activation reporter or marker.

B1: JG9-TCR (TCR, V domains shown)
Valpha: GQQLNQSPQSMFIQEGEDVSMNCTSSSIFNTWLWYKQEPGEGPVLLIALYKAGELTSNGRLTAQFGITRKDSFLNISASIPSDVGIYFCAGPMKTSYDKVIFGPGTSLSVIP
Vbeta: DAGVIQSPRHEVTEMGQEVTLRCKPISGHDYLFWYRQTMMRGLELLIYFNNNVPIDDSGMPEDRFSAKMPNASFSTLKIQPSEPRDSAVYFCASSSANYGYTFGSGTRLTVV
B1: the binding result in test [1] and in test [2] was “no recognition” throughout.

The record behind these values is patent US20200115432A1 (published 2020).
